Source: IntAct's records for PubMed 35266954

What was measured:
1433t_human YWHAQ = 1433t_human YWHAQ (UniProt P27348)
trim1_human MID2 = trim1_human MID2 (UniProt Q9UJV3)
UniProt Q9UJV3, sequence (Q9UJV3 whole entry): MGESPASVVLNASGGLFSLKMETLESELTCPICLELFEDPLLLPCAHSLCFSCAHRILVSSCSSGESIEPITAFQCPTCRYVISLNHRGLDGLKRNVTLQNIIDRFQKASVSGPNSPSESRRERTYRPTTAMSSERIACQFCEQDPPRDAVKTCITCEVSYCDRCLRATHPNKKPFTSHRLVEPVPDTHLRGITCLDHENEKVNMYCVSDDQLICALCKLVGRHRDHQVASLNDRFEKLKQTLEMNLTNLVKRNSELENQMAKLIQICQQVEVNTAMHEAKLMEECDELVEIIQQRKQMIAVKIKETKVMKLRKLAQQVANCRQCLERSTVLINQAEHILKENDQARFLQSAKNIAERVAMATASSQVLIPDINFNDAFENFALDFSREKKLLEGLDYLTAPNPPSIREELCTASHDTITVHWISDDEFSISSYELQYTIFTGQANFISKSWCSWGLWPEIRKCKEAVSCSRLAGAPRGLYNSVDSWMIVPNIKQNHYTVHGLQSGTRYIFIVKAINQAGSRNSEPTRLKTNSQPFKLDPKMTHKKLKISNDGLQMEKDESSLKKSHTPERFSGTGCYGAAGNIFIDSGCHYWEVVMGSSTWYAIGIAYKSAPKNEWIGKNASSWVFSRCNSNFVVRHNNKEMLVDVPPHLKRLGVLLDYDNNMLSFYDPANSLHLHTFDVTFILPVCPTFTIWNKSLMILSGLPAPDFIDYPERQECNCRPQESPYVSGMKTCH

UniProt P27348, sequence (P27348 whole entry): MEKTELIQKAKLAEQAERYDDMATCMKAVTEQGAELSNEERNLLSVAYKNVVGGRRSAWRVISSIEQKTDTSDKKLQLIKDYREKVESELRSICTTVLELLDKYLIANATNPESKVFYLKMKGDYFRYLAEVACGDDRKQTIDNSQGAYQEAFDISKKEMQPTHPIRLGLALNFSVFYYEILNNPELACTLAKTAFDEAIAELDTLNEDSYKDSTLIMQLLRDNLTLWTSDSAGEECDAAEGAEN

Leucine-rich repeat serine/threonine-protein kinase 2 (Homo sapiens), Q5S007 S910A;S935A
effect of a mutation on the interaction (1433t_human YWHAQ): disrupting interaction strength

Leucine-rich repeat serine/threonine-protein kinase 2 (Homo sapiens), Q5S007 R1441C
effect of a mutation on the interaction (1433t_human YWHAQ): disrupting interaction strength

Leucine-rich repeat serine/threonine-protein kinase 2 (Homo sapiens), Q5S007 S910D;S935D
effect of a mutation on the interaction (1433t_human YWHAQ): disrupting interaction strength

Leucine-rich repeat serine/threonine-protein kinase 2 (Homo sapiens), Q5S007 G2019S
effect of a mutation on the interaction (trim1_human MID2): with no effect
